# Measurements: PMC6031666
# Tested on: His51
# Assay: NMR
# Settings: 298 K; 100 mM NaCl, 5 mM CaCl2; 20 mM deuterated MES (pH 5.5, 6.0, 6.5, 7.2, 8.5) or 20 mM deuterated Tris (pH 8.5), 0.02% NaN3; Inhibitor-bound (Bz-Nle-Lys-Arg-Arg-B(OH)2, a tetrahedral transition-state mimic), NS2B-bound, folded. Two complex forms are in equilibrium.
substance,measurement,value
NS3 serine protease domain (NS3pro) in complex with NS2B cofactor segment (Dengue virus type 2 (DENV2)),pKa,remain fully protonated over the investigated pH range (5.5–8.5)
